According to patent publication US20090149389A1 (PURDUE RESEARCH FOUNDATION, published 2009):

T1: Aurora-A (h) (human (h), UniProt O14965 1-403)
T1 sequence (looked up): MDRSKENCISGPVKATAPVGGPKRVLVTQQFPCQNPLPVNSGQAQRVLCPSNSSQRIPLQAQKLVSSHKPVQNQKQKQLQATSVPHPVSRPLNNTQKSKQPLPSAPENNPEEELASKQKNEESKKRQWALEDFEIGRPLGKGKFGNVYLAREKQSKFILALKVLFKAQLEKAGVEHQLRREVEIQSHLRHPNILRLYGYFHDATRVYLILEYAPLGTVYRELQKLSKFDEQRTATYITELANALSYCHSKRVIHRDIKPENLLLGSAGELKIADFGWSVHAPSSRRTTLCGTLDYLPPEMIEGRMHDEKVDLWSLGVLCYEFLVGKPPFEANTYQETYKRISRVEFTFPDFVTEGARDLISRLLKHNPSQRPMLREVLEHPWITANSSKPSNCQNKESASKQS

T2: PKG1β (h) (human (h), UniProt Q13976-2 1-686)
T2 sequence (looked up): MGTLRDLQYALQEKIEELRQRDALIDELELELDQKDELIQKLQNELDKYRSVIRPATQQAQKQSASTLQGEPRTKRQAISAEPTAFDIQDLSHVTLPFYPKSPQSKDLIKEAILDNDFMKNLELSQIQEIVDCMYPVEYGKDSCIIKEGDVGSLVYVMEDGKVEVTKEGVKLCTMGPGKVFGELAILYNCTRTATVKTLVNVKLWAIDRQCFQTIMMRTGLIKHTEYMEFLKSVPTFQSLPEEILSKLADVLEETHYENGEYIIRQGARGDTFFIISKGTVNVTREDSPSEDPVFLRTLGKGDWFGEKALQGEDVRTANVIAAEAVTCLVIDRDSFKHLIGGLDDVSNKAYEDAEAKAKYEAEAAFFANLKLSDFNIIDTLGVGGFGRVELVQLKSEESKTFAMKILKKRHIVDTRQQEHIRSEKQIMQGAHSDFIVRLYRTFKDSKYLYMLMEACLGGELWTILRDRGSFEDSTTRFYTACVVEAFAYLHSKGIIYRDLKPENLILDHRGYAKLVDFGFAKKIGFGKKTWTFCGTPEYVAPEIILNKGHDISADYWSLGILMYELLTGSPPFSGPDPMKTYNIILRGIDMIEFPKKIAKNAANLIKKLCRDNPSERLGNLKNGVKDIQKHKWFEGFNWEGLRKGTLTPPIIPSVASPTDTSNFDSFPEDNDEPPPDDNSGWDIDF

T3: CHK1 (h) (human (h), UniProt O14757 1-476)
T3 sequence (looked up): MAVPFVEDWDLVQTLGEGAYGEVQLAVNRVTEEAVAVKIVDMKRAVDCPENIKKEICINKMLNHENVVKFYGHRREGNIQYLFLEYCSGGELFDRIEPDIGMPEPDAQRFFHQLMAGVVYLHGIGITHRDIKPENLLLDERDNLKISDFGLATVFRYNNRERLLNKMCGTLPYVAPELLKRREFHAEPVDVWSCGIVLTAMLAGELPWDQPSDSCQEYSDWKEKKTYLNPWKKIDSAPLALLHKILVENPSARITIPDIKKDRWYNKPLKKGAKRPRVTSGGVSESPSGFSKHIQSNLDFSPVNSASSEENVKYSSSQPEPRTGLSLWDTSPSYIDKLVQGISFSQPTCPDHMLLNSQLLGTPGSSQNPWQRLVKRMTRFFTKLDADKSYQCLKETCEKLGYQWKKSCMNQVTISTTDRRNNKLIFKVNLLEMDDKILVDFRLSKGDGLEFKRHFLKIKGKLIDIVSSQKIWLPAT

T4: MKK6 (h) (human (h), UniProt P52564 1-334, limits assumed)
T4 sequence (looked up): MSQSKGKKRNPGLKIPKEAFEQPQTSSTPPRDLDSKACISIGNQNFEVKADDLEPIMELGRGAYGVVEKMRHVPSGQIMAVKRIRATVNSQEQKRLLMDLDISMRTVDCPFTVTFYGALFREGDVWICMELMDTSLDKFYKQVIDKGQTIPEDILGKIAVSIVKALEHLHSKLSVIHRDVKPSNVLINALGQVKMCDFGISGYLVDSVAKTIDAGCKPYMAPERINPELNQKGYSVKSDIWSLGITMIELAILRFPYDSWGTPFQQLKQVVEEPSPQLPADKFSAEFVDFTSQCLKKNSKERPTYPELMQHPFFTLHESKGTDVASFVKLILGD


Legend:
Assay in all cases: cell-based or functional assay
Aurora-A (h) = target: T1, Aurora-A (h)
PKG1β (h) = target: T2, PKG1β (h)
SAPK2 a (h) = SAPK2 a (h) (human (h), UniProt Q16539 1-360)
Chain of SAPK2 a (h) (Q16539 whole entry): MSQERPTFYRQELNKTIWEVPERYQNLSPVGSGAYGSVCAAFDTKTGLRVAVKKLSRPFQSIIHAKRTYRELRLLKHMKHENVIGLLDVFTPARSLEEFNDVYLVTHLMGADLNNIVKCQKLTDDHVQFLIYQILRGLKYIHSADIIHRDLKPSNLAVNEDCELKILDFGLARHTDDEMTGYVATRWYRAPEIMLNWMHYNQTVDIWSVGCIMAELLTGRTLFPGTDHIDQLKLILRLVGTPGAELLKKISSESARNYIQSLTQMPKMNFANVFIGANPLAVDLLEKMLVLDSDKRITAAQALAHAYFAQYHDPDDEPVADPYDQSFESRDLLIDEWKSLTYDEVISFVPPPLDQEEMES

CK2 (h) [1] = target: T5, CK2 (h) (human (h), UniProt P68400 1-391)
T5 sequence (P68400 whole entry): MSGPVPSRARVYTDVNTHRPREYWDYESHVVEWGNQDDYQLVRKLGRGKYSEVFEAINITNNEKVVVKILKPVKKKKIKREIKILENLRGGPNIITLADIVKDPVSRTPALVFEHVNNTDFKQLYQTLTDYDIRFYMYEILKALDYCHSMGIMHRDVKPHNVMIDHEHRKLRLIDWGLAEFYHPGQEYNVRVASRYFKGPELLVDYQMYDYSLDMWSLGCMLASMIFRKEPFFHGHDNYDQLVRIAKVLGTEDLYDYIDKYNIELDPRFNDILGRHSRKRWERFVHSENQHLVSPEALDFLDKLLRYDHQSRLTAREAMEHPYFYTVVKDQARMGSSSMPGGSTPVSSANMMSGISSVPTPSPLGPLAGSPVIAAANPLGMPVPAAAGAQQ

Src(1-530) (h) = Src(1-530) (h) (human (h), UniProt P12931 1-530)
TrkA (h) = TrkA (h) (human (h), UniProt P04629 441-796, limits assumed)
Chain of TrkA (h) (P04629 441-796 limits assumed): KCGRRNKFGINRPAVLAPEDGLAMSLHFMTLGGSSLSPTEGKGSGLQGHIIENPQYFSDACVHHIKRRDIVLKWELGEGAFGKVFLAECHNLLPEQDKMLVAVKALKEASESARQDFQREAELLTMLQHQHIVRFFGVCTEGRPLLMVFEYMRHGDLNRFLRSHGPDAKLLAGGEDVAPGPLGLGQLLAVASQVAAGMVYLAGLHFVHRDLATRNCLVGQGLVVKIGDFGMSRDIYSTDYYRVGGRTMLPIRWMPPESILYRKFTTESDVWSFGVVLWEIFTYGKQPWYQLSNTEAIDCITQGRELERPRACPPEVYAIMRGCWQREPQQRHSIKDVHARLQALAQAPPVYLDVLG

PDGFRβ (h) = PDGFRβ (h) (human (h), UniProt P09619 558-1106, limits assumed)
Chain of PDGFRβ (h) (P09619 558-1106 limits assumed): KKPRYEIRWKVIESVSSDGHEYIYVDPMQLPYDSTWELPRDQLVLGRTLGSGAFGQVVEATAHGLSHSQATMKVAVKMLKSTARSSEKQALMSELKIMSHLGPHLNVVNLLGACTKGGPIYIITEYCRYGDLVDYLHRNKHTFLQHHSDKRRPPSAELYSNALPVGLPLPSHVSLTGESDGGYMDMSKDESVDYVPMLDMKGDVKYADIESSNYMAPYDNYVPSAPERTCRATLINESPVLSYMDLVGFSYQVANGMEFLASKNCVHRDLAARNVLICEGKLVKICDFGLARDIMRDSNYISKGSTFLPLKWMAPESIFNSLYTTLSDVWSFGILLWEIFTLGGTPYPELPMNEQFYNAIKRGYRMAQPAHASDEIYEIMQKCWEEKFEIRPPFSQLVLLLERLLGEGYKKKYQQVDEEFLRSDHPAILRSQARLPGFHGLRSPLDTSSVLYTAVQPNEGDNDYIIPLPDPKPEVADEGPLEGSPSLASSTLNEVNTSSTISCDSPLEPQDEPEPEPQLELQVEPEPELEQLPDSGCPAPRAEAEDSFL

JNK1α1 (h) = JNK1α1 (h) (human (h), UniProt P45983-2 1-384)
Chain of JNK1α1 (h) (P45983 other isoform, or with tags, fused parts or gaps limits assumed): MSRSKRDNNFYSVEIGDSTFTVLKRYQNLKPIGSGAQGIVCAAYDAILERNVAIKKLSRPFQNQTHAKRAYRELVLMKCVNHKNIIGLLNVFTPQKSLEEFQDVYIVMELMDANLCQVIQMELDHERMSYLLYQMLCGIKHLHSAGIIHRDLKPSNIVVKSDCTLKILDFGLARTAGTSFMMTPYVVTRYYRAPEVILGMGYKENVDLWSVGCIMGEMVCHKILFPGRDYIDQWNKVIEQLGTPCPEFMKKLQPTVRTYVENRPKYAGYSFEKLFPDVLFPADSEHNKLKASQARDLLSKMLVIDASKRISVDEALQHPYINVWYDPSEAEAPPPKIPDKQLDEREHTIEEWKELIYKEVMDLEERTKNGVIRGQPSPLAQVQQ

CHK1 (h) = target: T3, CHK1 (h)
MKK6 (h) = target: T4, MKK6 (h)
Lck (h) = Lck (h) (human (h), UniProt P06239 1-509)
Chain of Lck (h) (P06239 whole entry): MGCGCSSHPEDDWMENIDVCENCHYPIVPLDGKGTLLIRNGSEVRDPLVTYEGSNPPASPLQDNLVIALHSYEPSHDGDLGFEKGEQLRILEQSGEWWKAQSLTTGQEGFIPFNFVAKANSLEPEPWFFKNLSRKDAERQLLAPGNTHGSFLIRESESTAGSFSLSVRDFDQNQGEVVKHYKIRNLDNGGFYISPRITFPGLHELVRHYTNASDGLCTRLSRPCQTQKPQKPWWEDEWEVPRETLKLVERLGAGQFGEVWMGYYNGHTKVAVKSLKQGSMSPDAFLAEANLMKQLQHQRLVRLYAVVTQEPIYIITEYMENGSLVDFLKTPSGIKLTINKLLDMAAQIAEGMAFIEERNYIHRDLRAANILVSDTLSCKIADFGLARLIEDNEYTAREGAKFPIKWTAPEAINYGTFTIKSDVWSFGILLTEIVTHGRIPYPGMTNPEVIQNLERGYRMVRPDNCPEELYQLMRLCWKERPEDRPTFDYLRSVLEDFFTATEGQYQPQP

JAK3 (h) = JAK3 (h) (human (h), UniProt P52333 781-1124, limits assumed)
Chain of JAK3 (h) (P52333 781-1124 limits assumed): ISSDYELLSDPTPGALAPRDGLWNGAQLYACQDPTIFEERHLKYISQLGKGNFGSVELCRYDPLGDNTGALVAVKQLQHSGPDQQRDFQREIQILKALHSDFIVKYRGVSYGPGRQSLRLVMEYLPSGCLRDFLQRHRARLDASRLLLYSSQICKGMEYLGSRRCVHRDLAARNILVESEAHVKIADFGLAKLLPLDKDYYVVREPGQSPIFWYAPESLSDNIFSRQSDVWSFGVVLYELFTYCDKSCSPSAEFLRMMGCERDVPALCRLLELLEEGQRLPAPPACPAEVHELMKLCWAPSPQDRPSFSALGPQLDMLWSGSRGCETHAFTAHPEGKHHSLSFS

CK2 (h) [2] = target: T5, CK2 (h); remark: listed apart in the source
cKit (h) = cKit (h) (human (h), UniProt P10721 544-976, limits assumed)
Chain of cKit (h) (P10721 544-976 limits assumed): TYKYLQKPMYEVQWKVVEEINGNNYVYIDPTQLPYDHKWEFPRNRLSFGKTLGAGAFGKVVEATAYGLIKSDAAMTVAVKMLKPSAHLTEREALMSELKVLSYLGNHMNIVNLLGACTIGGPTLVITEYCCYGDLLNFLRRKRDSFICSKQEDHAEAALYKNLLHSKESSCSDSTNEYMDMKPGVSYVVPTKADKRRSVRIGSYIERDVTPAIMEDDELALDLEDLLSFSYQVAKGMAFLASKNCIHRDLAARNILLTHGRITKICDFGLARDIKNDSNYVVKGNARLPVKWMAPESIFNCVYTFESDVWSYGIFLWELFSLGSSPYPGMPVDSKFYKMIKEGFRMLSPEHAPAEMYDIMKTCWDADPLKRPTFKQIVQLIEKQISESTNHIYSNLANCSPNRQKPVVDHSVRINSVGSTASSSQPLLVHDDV

PKA (h) = PKA (h) (human (h), UniProt P17612 1-351)

Row | Binder | Profile-1 @ = 30 µm (kinase profiler assay) (Aurora-A (h)) | Profile-1 @ = 30 µm (kinase profiler assay) (PKG1β (h)) | Profile-1 @ = 30 µm (kinase profiler assay) (SAPK2 a (h)) | Profile-1 @ = 30 µm (kinase profiler assay) (CK2 (h) [1]) | Profile-1 @ = 30 µm (kinase profiler assay) (Src(1-530) (h)) | Profile-1 @ = 30 µm (kinase profiler assay) (TrkA (h)) | Profile-1 @ = 30 µm (kinase profiler assay) (PDGFRβ (h)) | Profile-1 @ = 100 µm (kinase profiler assay) (JNK1α1 (h)) | Profile-1 @ = 100 µm (kinase profiler assay) (CHK1 (h)) | Profile-1 @ = 100 µm (kinase profiler assay) (MKK6 (h)) | Profile-1 @ = 100 µm (kinase profiler assay) (Lck (h)) | Profile-1 @ = 100 µm (kinase profiler assay) (JAK3 (h)) | Profile-1 @ = 100 µm (kinase profiler assay) (CK2 (h) [2]) | Profile-1 @ = 100 µm (kinase profiler assay) (cKit (h)) | Profile-1 @ = 100 µm (kinase profiler assay) (PKA (h))
1 | WLRRIKAWLRRIKALNRQLGVAA | 46 | 15 | 61 | 114 | 6 | 6 | 42 | – | – | – | – | – | – | – | –
2 | FAKLAARLYRKALARQLGVAA | – | – | – | – | – | – | – | 91 | 54 | 42 | 493 | 102 | 80 | 42 | 76
